Reference: IntAct's records for PubMed 17805295

Molecular target: Cdh23, Q99PF4-1
Sequence (Q99PF4 whole entry): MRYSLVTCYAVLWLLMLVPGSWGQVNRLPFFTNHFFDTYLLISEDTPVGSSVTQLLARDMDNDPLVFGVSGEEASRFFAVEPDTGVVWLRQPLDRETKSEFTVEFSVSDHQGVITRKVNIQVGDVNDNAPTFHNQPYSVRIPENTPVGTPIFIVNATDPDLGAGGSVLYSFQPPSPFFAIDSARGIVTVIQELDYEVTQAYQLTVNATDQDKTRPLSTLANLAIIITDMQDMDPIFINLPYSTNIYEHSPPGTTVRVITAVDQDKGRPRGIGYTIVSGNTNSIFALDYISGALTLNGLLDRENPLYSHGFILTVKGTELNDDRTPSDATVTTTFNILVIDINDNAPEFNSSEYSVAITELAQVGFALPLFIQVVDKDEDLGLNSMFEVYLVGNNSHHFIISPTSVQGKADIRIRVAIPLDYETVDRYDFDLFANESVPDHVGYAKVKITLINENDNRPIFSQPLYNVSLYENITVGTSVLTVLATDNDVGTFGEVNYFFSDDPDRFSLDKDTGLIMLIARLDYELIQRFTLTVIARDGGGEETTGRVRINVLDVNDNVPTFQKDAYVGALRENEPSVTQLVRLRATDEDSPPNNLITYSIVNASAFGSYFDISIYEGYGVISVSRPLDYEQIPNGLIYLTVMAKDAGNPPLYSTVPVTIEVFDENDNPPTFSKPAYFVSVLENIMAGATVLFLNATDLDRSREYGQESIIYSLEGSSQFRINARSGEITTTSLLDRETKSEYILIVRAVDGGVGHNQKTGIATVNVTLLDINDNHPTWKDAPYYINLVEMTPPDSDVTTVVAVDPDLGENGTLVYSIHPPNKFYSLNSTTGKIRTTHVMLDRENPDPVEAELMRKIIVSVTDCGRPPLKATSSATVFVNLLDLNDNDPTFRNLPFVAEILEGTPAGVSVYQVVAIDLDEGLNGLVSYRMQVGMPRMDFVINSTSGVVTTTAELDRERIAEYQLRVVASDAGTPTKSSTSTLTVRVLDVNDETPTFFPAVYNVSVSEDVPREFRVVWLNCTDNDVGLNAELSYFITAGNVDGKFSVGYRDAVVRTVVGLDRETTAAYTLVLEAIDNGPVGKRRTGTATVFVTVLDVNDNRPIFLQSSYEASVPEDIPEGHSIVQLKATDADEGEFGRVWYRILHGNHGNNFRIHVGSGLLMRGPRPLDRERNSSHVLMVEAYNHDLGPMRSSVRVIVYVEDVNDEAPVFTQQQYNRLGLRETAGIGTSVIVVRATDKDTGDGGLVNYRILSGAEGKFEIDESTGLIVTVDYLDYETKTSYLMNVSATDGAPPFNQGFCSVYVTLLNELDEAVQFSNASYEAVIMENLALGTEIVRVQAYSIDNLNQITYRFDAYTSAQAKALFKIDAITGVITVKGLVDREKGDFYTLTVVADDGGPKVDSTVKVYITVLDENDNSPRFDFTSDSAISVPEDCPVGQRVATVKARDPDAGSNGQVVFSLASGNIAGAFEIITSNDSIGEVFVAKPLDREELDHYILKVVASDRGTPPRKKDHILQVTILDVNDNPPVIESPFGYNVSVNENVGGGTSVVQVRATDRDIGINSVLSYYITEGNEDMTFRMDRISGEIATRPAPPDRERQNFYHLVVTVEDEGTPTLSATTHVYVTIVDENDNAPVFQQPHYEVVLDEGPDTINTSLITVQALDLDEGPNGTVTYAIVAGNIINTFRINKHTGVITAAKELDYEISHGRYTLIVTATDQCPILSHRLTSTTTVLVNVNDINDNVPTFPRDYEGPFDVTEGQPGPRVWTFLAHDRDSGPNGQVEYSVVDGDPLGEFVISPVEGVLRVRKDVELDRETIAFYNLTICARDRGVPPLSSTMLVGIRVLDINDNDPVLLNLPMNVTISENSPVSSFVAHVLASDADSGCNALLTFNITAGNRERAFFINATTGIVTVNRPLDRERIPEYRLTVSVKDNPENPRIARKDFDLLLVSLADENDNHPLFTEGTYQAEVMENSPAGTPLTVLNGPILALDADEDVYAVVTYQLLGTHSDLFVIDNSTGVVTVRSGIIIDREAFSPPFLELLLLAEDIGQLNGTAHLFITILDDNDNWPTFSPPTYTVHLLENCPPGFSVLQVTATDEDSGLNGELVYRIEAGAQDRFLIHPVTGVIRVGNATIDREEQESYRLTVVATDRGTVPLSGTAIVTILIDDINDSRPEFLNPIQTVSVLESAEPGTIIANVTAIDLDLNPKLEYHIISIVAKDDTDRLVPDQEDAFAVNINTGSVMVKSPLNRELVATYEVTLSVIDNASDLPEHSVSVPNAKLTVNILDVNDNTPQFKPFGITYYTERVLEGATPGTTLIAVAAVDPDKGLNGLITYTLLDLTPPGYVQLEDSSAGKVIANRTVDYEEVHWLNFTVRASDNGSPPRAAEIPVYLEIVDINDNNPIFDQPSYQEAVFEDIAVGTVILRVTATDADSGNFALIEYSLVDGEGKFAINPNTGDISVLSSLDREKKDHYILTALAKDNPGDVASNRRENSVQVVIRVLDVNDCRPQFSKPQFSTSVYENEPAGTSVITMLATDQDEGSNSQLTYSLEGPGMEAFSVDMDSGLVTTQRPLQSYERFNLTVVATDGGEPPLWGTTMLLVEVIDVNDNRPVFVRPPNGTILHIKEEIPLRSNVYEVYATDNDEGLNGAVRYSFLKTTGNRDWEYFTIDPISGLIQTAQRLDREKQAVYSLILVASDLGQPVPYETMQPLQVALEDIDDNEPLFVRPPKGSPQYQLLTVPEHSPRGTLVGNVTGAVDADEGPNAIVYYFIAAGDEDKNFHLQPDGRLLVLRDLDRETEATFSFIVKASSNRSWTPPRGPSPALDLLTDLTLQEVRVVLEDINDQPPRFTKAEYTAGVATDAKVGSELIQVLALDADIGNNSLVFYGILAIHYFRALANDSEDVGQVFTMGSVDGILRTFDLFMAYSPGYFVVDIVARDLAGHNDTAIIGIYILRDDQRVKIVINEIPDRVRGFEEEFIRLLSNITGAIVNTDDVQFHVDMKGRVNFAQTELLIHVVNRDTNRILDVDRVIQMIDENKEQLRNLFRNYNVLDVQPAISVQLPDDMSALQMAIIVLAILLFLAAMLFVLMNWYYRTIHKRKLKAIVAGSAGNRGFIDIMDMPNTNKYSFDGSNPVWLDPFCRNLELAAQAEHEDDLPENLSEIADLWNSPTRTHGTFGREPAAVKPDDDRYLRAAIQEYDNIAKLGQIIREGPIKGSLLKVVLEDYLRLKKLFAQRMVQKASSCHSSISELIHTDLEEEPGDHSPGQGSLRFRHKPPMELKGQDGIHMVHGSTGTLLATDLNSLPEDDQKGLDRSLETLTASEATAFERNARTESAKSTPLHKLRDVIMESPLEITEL

Protocadherin-15 (Mus musculus), Q99PJ1 R139G
effect of a mutation on the interaction: disrupting interaction strength
